Paper PMC4432619
Each block holds one substance with its values, some of them ahead of it.

Experiments:
[1] = target: FMNL1N (FMNL1 2–385, GBD–FH3) (human) (UniProt O95466); assay: ITC; GppNHp-loaded GTPase at 500 μM injected from the syringe into 50 μM FMNL in the cell; 20 mM Tris/HCl pH 8, 150 mM NaCl, 5 mM MgCl2, 1 mM DTE, 298 K; MicroCal iTC200
[2] = target: FMNL1NCC (FMNL1 1–458, GBD-FH3-CC) (human) (UniProt O95466); assay: as above
Target sequence in this assay (O95466 1-458): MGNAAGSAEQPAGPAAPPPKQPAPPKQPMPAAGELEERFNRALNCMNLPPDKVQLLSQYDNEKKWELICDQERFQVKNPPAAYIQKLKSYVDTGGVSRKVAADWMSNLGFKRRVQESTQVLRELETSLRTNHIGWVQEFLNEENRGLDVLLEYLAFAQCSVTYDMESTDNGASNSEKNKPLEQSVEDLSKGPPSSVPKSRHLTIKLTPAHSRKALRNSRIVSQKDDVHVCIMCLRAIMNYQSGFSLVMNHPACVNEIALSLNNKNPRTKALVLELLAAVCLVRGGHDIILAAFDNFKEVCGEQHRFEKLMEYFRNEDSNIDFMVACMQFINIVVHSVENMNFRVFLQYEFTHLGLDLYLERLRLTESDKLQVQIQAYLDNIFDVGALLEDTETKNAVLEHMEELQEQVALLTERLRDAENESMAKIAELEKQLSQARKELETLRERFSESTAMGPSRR

[3] = target: FMNL2N(S171DD) (residues 1–379) (human) (UniProt Q96PY5); assay: as above
[4] = target: FMNL1NCC (FMNL1 1–458, GBD-FH3-CC) (human) (UniProt O95466); assay: SEC; analytical gel filtration, Superdex S200 (10/300 GL), typically 100 μg of each protein, 20 mM Tris/HCl pH 8.0, 150 mM NaCl, 1 mM DTE (2.5 mM MgCl2 with Rho GTPases), 0.5 ml/min, 293 K
[5] = target: FMNL2 1–489 (N-terminal FMNL2 construct including the coiled coil domain) (human) (UniProt Q96PY5); assay: as above

Chain of Cdc42 (1–179) (P60953 1-179): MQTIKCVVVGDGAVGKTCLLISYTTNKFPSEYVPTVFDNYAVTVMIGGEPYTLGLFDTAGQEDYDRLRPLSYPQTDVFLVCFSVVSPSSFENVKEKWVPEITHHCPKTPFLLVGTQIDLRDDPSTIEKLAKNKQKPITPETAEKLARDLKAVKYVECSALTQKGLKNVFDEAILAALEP
Chain of FMNL1N (FMNL1 2–385, GBD–FH3) (human) (O95466 2-385): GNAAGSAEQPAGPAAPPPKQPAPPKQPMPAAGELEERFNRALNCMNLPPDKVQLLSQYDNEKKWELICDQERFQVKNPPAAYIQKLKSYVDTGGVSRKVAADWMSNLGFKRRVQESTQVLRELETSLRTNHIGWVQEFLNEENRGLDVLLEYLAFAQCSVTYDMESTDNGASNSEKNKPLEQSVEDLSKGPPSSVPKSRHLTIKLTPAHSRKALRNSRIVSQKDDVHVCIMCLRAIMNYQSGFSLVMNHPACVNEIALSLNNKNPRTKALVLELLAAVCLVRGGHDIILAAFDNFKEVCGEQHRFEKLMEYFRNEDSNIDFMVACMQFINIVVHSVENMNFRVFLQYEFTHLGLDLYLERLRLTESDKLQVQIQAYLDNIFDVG
Chain of FMNL1NCC (FMNL1 1–458, GBD-FH3-CC) (O95466 1-458): as the sequence (O95466 1-458) above

- Kd [1]: 6130 nM
- dH [1]: -5.08 kcal/mol
- stoichiometry N [1]: 0.28
- Kd [2]: 2550 nM
- dH [2]: -5.48 kcal/mol
- stoichiometry N [2]: 0.37
- Kd [3]: 790 nM
- dH [3]: -4.06 kcal/mol
- stoichiometry N [3]: 1.05
Substance: Cdc42 (1–179) (from UniProt P60953 1-179) (domain or fragment)

- stoichiometry N [4]: 2
Substance: FMNL1NCC (FMNL1 1–458, GBD-FH3-CC) (from UniProt O95466 1-458) (domain or fragment)

- stoichiometry N [5]: 2
Substance: FMNL2 1–489 (N-terminal FMNL2 construct including the coiled coil domain) (from UniProt Q96PY5 1-489) (domain or fragment)
